# Experimental data reported in US20260183411A1, “TARGETING SORTILIN” (priority 2024, published 2026).
# Tests used:
# SORT1 = target: T1, SORT1 (Homo sapiens, UniProt Q99523); experiment: FP competition binding assay
# T1 construct: Human SORT1 (78-755)-His (Acrobiosystems); His (C); purchased Acrobiosystems SON-H52H5
# T1 sequence (Q99523 78-755): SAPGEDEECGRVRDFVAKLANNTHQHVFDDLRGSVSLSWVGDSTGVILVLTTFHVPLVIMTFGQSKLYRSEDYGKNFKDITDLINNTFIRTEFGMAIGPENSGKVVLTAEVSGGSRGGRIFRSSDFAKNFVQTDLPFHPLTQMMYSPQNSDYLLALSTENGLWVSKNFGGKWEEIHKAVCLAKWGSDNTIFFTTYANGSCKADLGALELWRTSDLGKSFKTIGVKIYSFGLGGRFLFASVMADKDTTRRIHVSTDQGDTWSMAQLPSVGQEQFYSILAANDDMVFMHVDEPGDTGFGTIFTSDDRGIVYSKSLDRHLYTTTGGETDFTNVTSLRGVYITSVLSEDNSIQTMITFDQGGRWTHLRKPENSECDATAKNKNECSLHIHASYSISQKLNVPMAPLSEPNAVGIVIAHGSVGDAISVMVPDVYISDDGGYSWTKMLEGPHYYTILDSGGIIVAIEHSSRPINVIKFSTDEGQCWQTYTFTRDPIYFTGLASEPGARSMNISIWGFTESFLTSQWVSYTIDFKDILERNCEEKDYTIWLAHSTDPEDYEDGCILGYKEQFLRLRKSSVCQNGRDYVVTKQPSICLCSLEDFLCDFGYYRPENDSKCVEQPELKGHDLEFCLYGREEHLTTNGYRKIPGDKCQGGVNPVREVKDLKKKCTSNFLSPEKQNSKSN
# Protocol: Competition binding studies were conducted in a similar manner to the direct binding protocol. Unlabeled peptides were prepared with a 12-point, two-fold dilution series in a V-bottom 96-well plate for a total volume of 25 uL with a starting concentration of 50 μM. A 10× working stock of the FAM labeled peptide was prepared as described for the Direct binding experiment.
# A 500 nM working solution (EC80) of target protein was prepared in the FP buffer (1×PBS, pH 7.4, 0.1% Tween-20). An aliquot of 20 μL of the 500 nM working solution was then added to 2.5 μL of the FAM-peptide, after which 2.5 μL of the unlabeled peptide dilution series was added and mixed by pipetting in a V-bottom 96-well plate. […] The 384-well plate was then centrifuged 1 min, 4000 rpm and fluorescence and polarization of dye measured on a Biotek Synergy Neo2 plate reader using the same settings as for the Direct Binding experiment. Data were then fitted to a One site—Fit log IC50 curve in GraphPad to calculate the IC50.
# The various conjugates were evaluated in a competitive fluorescence polarization study as described elsewhere herein.
# [1] = Murine plasma stability assay; format: in vitro ADME; details: mouse, 2 μM, 37° C., read-out: Murine plasma stability assay, T1/2
# Protocol: Frozen plasma was thawed at 37° C. and centrifuged at 4000 rpm to remove any clots and transferred to 96-well reaction plates by WuXi AppTec. Test compounds were added to the reaction plate at a final concentration of 2 μM and either stopped immediately or incubated at 37° C. for 5 minutes, 10 minutes, 30 minutes, 60 minutes, or 120 minutes. At the end of incubation, stop solution consisting of 200 ng/mL tolbutamide and 200 ng/mL labetalol in ACN was added to precipitate protein and mixed thoroughly. Samples were then transferred to a bioanalysis plate and shaken for 10 minutes prior to HPLC-MS/MS analysis of percent remaining compound.
# Table 14 tabulates the plasma stability for each of the three PDCs tested.
# [2] = CMC formulation buffer screen; format: physicochemical; details: 0.5 mg/mL
# Protocol: Exemplary conjugate agents (e.g., sortilin binding agents), referred to in the present Example as “peptide drug conjugates” or “PDCs” were assessed in a formulation screen to determine an appropriate vehicle for in vivo studies and to assess precipitation risk. PDC solutions were made up to 0.5 mg/mL in the following buffers: 25 mM Histidine 10% sucrose pH 7, 50 mM acetate/acetic acid, 10% sucrose pH 5, 1×PBS pH 7.4, Saline, 50 mM HEPES 10% sucrose pH 7. Solubility was assessed using a shake flask method and the test compound concentration of the filtrate was confirmed using HPLC-UV.
# The following buffers were screened: 25 mM Histidine 10% sucrose pH 7, 50 mM acetate/acetic acid, 10% sucrose pH 5, 1×PBS pH 7.4, Saline, 50 mM HEPES 10% sucrose pH 7. The PDCs were soluble in all buffers tested (Table 1), and we proceed to use 25 mM Histidine, 10% sucrose pH 7 as our buffer of choice for our in vivo studies.
compound,measurement,setting,value
CC[C@H](C)[C@@H]([C@@H](CC(=O)N1CCC[C@H]1[C@H](OC)[C@@H](C)C(=O)N[C@H](C)[C@@H](O)c1ccccc1)OC)N(C)C(=O)[C@@H](NC(=O)[C@H](C(C)C)N(C)C(=O)OCc1ccc(NC(=O)[C@H](CCCNC(N)=O)NC(=O)[C@@H](NC(=O)CCCC(=O)NCCC(=O)N(C)CC(=O)N(C)CC(=O)N(C)CC(=O)N(C)CC(=O)N[C@@H](C)C(=O)N2CCC[C@H]2C(=O)N[C@@H](CCCNC(=N)N)C(=O)N[C@@H](Cc2c[nH]c3ccccc23)C(=O)N[C@@H](CC(=O)O)C(=O)N[C@@H](C)C(=O)N2CCC[C@H]2C(=O)N[C@@H](CC(C)C)C(=O)N[C@@H](CCCNC(=N)N)C(=O)N[C@@H](CC(=O)O)C(=O)N2CCC[C@H]2C(=O)N[C@@H](C)C(=O)N[C@@H](CC(C)C)C(=O)N[C@@H](CCCNC(=N)N)C(=O)N[C@@H](CCC(N)=O)C(=O)N[C@@H](CC(C)C)C(=O)N[C@@H](CC(C)C)C(=O)O)C(C)C)cc1)C(C)C [PRGN_WT_PDC],increase in affinity relative to parent homing peptide,SORT1,~2.5 ×
same,half-life,[1],17.1 min
same,result (buffer screening),[2]; 25 mM Histidine 10% sucrose pH 7,clear solution
same,result (buffer screening),[2]; 50 mM HEPES 10% sucrose pH 7,clear solution
same,result (buffer screening),"[2]; 50 mM acetate/acetic acid, 10% sucrose pH 5",clear solution
same,result (buffer screening),[2]; 1x PBS pH 7.4,clear solution
same,result (buffer screening),[2]; Saline,clear solution
